Experimental data taken from a protein production outcome set (Wang et al. 2014).

Assay: label from the status in PepcDB records

Sequence	protein production
MPNGPTCAARRARARSALVGGEGFRMEWSGKRVSDGSATRPTVAAWVSGGFGSGESVAAFKALATEAEAGDASAQRRLGLCFRDGLGTDRDIHRAKAWYQRSAAQNDPMAALELGLMLESGLGISSDHGEAGKWYRVALDLWRDRAEGGDALGQFVLGLCHEVGAGVPAAHREALKWYGRSAERGCAHAQWALGRLHEDGLGVVRDYSEAVRCYRAAAFQGHARACFNLGLMAELGLGMVRDADCSASWYGKALEVWRRWAELGDPAAATALAAMYEAGHGVAKDYAVAVCWYRRAARQGNPLAQFELGRLSMEGRGVERNDVEAVGWFRLAAERGHADAQFHLGLMHEHGRGVTRRFEEAFRWYDKAADEGPARRWDAFHRLVPAAGEVPEGCGLGAW	failed
MPNHQPVKKFKIIGGACKGLGLNLPNISSTRPTKAIVRESFFNTLQAEINGAHFIEVFSGSASMGLEALSRGAKSAVFFEQNKSAYKTLLENISLFKNRLKKEMEIQTFLDDAFKLLPTLCLKNGVLNIIYLDPPFETSGFLGIYEKCFQALERLLKRFNPKNLLVVFEHESMHEMPKSLVTLAIIKQKKFGKTTLTYFQ	failed
MPNLSCGVDNCAYNQNDMCSLNSIKVNGSFANHSEATCCGSFVEKGGFTNAAVDMGPAEPATSVACEAEKCCYNKNCKCHAESIDISGDYAQHQDNTECSTFRQELEHHHHHH	not failed
MPNNVKITSSHRVLMIALLAAAFACYLLVEPYINSIVMAFIISLLMFPVHEWFERKMPKHKNSASLLTCVVLTFIIVIPLLFVFAAIVQQGSVFSQNTYKWVTNGGIQDIFQHPWVIKGLSIVNEYLPFDKIEPKAIAEKIGQFATTFGSNLVAISAKILGDATNFLMDFFLMLFVLFFLLRDHDKIISAIRHILPLSRSQEDRILTEIEQVSKSAVMGSFLTAIAQGLAGGIGMWLAGFPGLFWGTMMGFASFIPVVGTALIWIPAAAYLFLTGDMTWAIFLTAWSVVIVGSIDNLLRPLLMQGSAGMNTLMIFFSLLGGLHLFGLIGLIYGPLIFAVTMVLFNIYEEEFKDFLNQQDNS	failed
MPNQSNESRPFHKDLESILYAHVPLPMFTMDEEGALLNMNEGAMETLRVDWEQNQRSSVFQLFESECRESLYLALATVNKISQVEKVELIKRNGETFETFCLSLQLLPDKQVIAFIAPLIDKGMDPLTGVPIRQEVPRLMERTFQENQAETYVLFLINLDRFKLVNDSLGEGYGDQVLQTLVRRLLWQLPNQQWIARVSGDEFIACAAIKGELPKKETLATYISSIIQQPFQVDEVQFTMTASIGAAVYPMDGKSVEMIWNSLERALRHAKARGGNCVSWFCQELKDEWIHPFRLENDLRRAVENQELELYFQPIFETTTGEHCGEEVLVRWNHPALGVLGPNFFIPVAEEIGLIGVVGKWVLDEACKQKALLIEKEASSVPMSVNLSLRQFLQPDIVDMILDSLNKYGLDPSLLEVEVTERITIDMNRAMKVLQKLRAQGIRVSLDDFGTGYSSLQYISQLPIQKLKIDKSFIAEIGVNSQVEAIISMIIHLGHELDLTVVAEGVETEKQLSFLKEKKCDTVQGYYHAKPLTFSEFKKYLLS	failed
MPPGTTLQGGKYRLEQVLGQGGFGITYLGSQTQLGARVAIKELFPSGSTRQSGQYVLPPAGTDPAGWAQAKQDFTAEGRTVARFNHPDIVRVMDLFEENGTAYLVMEFLEGQTLGSAIEKRGPLPPDEVVNIAKRVLGALSVVHSAGMLHRDIKPDNIYLDKAGRTVLIDFGSARTFAAGQTVSHTRLVTPGYAPLEQYSGSAKFGPYTDIYALGATLYHALTGHPPTPATDRTMGTPLAPLPPNTPPALREAIERSLAIKINERPQSTQEVLALLNQVSVAPQSAPAAPAPRPTPPQRNQTFPPAPQPTPQRQPQRPPQPVPQPPAQRRRGPGCGCLFPLLLLGGLALYGMNVLGPLLSPSQTETTTTSEQTQPEPPAQTPTTPTEDPTIPQAPGTTDSGQDWQSGDSIDLGLPGSNGETPAQTDNTATPETTTQGNAGTETNPTTTPETNTSTAPTSGELVVTAPNVTLRSAADAAANSLGTLAAGSTVQILQTQDGWYEVQTTSGQRGWVGTDAALPPVSAEALKALQTAAGQGGDVQLSPGVYRLQEPLVLSQDAHLTGAGRDRTWITSAAGNAVLTTRGNVSLQGVTVGWTGQTPGGALLAEGGTVTLRDARLTGGVRDETRNESGSGLQLSQGAQGDVQGSDLVGNAYGASVSDTAQLKLKDSTLSDNSLGGAIFLDSSGGEVRGSTLERNGGDGLTVRHTAAPVIVDSELRDNGERGLSVEGQAKPTVKRVTASGNTLQGIGVQDDAQPQLSNNKLTGNGQEGLTYADRAGGRASENELSGNQVGIAVQGSAAPELRTNIIRDSRDAGLSYAGQAGGTARGNTITGSAKPGISLWGEAQPTLSSNVIQGGAQSGIVFAEHAGGTLDSNEVLGNALSGLVVRDTAAPEVRGNTFQDNGKAAMVYEGEAGGRVSGNTCQGNGSDVIELHLTSVLAGPDLSGASCAVQTQGNW	failed
MPPGVAVCFSSLFIRLVCMAFLTSSDKALWHLALPMIFSNITVPLLGLVDTAVIGHLDSPVYLGGVAVGATATSFLFMLLLFLRMSTTGLTAQAYGAKNPQALARTLVQPLLLALGAGALIALLRTPIIDLALHIVGGSEAVLEQARRFLEIRWLSAPASLANLVLLGWLLGVQYARAPVILLVVGNILNIVLDVWLVMGLHMNVQGAALATVIAEYATLLIGLLMVRKILKLRGISGEMLKTAWRGNFRRLLALNRDIMLRSLLLQLCFGAITVLGARLGSDIIAVNAVLMTLLTFTAYALDGFAYAVEAHSGQAYGARDGSQLLDVWRAACRQSGIVALLFSVVYLLAGEHIIALLTSLTQIQQLADRYLIWQVILPVVGVWCYLLDGMFIGATRATEMRNSMAVAAAGFALTLLTLPWLGNHALWLALTVFLALRGLSLAAIWRRHWRNGTWFAAT	failed
MPPPIHPSSSAAPGPVPNHLIWAIVSTVLGFCLCCPALISGIVAIVFSSKVNGLLNQGDIDGARRASNTAKTWCIVTSVLAAIGLLINIGMVATGGMQGYMDYMQQLQHMQ	failed
MPPPLPYDAMRSVWTDTAAPAMATAPLAGHADCDVAIVGAGITGLSAALHLAERGLRACVLEARDPGWGASGRNGGQVIPGIKHDPDEILARHGRERGEPLLHMVGTAADTVFDLIDRYGLDLVQAQIRLAAGERLDRVVPADLQPSGHAIELRVYAEDPVRFIPSPGTLAVFELPQGPGVRTETGYHAGNAVSPHYDPMIAKIIVHGADRAQAIARAEQALADTEIAGVKTNLPFLARALAFEPWRQGRLHTGIVARTLAEPAPAALTALEHHHHHH	failed
MPPQRRRRPEPEAPAPGRRGRRPEKKKSRGKRVLLWTGGSMAFVVLVAGVGGYVYLKHLEGNVSTTDVGTAGSSSFKKDEAFNILIIGTDKRTGEGNEGYGDKGSAGHADTNILLHVAEDRSNATALSIPRDLIVDIPDCETTQEDGTKKVIPGTSGVRFNQSLGDFGRDAGCTMRTVAETTGIKPDHFMMADFNAVKTLTTAVDGVDVCVEHAVDDPKSHLKLPAGESKVEGEQALAFVRTRHAFGNEGDLDRIKVQQQFLGSLMRKMASGDTLTSPTKLVKLAEAATKALTVDSAIGKVGTLKDIALELKKVPTKNITFTTVPVIDNPAEKVKATVVVNEAKGPQVFDMIKNDISFTEVEQQKKKEKAAVAARLKGEKSEPGEVRVRVMNGGAPAGSAQQELAYLQTQAGVSKSENAGNAPADIAKTTLEYAPDQADQARALAEILGLTGAAMKPGESVTNSQGLPTMTLTLGKDFKGAGVKLDGSVKKPDLDTESTADQKLCAS	failed
MPPRIEDILPHRGSMLLLAHVDTWDDETLRASAHVDPTAWYADPEGAMPAWFGIELMAQAIAAHVGLLSMREGNPARPGVLLGSRKYEAHAPAFAPAQPLSIAVQEVLRSTEGHGAYACTIAAGGRDLAQAVIKVYQPTDFQAFIEGLEHHHHHH	failed
MPPRKKPKSSALKSNKQSSANHSSQPSTFGIQQLFLRHIQNSQSTSNSHTSTADPVDQQNVNGLASDTAVLTPQNPLGTSNEKPDESKDMDQQLTEASPKISKNLKRFSPGMLIKQSQDDCGGEITWKISPVNERLRAAAKNIPKMMDLTENSLGKQCPTSGITSKVEQWLSSPSKKASKRPAFATNRVMERVNPSPDAEFEIVNTSSSGNSPFQTPPSLSCPHNKLPCTVTCSGACGSMGAGQHKKALLELLDQVEDVIAVDDKTTDDVGIVMPQARVKDDIISSVVDCAVDEGPVSLPKMQNSINPDSYFLVLEVSEKRGSGSSSKGQCPYKVLRLLDEHTGVECALYLWDEWFYSTVSPGDSINVIGEFDGDGKCDVDRQNNFLIVHPDTLVAGTRVAASFGCPRRTVLDERLRSNEHATVALLGTLQHQVFQAGLSQESPSVDGLQEYASTVIEKSIESLYACGVHEGDVRSTLFKAIPKMLNWIEHFRYSKDSEVSKVDFGSTIGKKAVKVSEVIDIEEMSWAPKYGLKGMIDASVRVIVESDMNTVNEKIMPLEFKSGKAPSGQSSIEHSAQVILYTLLMSERYLKHIDNGLLYYLQSDQTQGISVQRSDLVGLIIRRNELANDILVASTTQQLPPMLRADGGNTESSGLGDVFDTHVSHLSTLHFNFLRHWDRLIDLEGREMQLLRKDIAHPHGSKGSHSASYLSSMVLDVTNGFQHHNSHKETRFIYRFVRQKSSESRERVTSEDMIRTGNLATDDLDCKLRTGDRVILRTEVSHLTVANGIIADISRTHISVSLSKRLRLPWSEPSSEVSNLSHELWRIYKDEFMTSFSVMRFNLMQLFVQNGHNIRKMIVDLEPPRFDNGSILSQDPAISYIWSEKSLNNDQRQAILKILTAKDYALILGMPGTGKTSTMVHAVKALLIRGSSILLASYTNSAVDNLLIKLKAQGIEFLRIGRDEAVHEEVRESCFSAMNMCSVEDIKKKLDQVKVVASTCLGINSPLLVNRRFDVCIIDEAGQIALPVSIGPLLFASTFVLVGDHYQLPPLVQSTEARENGMGISLFRRLSEAHPQAISVLQNQYRMCRGIMELSNALIYGDRLCCGSAEVADATLVLSTSSSTSPWLKKVLEPTRTVVFVNTDMLRAFEARDQNAINNPVEASIIAEIVEELVNNGVDSKDIGIITPYNSQASLIQHAIPTTPVEIHTIDKYQGRDKDCILVSFVRSREKPRSSASSLLGDWHRINVALTRAKKKLIMVGSQRTLSRVPLLMLLLNKVKEQSGILNLLPGDLKP	failed
MPQFPWKDNDAELSPLEAFLAEWDDPEAEEEDFRNDFFRGSEGRRKKAAVMLMAIWTVVITLHYWVWGSWLVWALTGALSLQALRLMKATPEEAPPLLTGDASTVPYPQVCLMVAAKNEEAVIGKIVQQLCSLDYPGDRHEVWIVDDNSTDRTPAILDQLRQQYPQLKVVRRGAGASGGKSGALNEVLAQTQGDIVGVFDADANVPKDLLRRVVPYFASPTFGALQVRKAIANEAVNFWTRGQGAEMALDAYFQQQRIVTGGIGELRGNGQFVARQALDAVGGWNEQTITDDLDLTIRLHLHQWKVGILVNPPVEEEGVTTAIALWHQRNRWAEGGYQRYLDYWRWICTQPMGWKKKLDLFSFLLMQYLLPTAAVPDLLMALWQRRFPLLTPLSYLAIGFSCWGMYYGLKRLTPSEGESPWQQMPALLARTIGGTIYMFHWLIIMPAVTARMAFRPKRLKWVKTVHGAATEDALELKQS	failed
MPQNYPWLNTEQPLSIKQLNGRVVILDFWTYCCINCLHVLPDLKYLEQKYKDSLTVIGVHSAKFDNEQETENIRQAILRYDIEHPVLVDKDFRVWQEYAVRAWPTLMVIDPKGYVIGYVSGEGNRDKLDQLITQVIQEHQGAINFQQLSLTLEKQRQPLITPLAFPGKVLATPSGLFVADSGHHRIVVSDFNGEILHLIGNGKSGLTDGNFQEAQFSAPQGMAFDMENQILYLADTENHALRRVDINQQTVETIAGTGEQSRNIQPHGGVGLETALNSPWDLVNIENSLYIAMAGVHQIWQMDLASGVIKTYAGTGVEACLDASLTESAFAQPSGITNNEQELYIADSEISSIRGVGLVEPQEVRTVCGSGGLFGFGDVDGQGEDVRLQHCLGVEYFQNYLWVADTYNHKIKSVSPHTGNCQTVLGDGLAGLQNGQGKNTRFFEPSGLSAIDSYLYISDTNNHVIRRVDLRTLEVTTMQFNGLCAPDVCIPNNFLEHHHHHH	not failed
